{"source": "a protein production outcome set (Wang et al. 2014)", "data": [{"experiment": "label from the status in PepcDB records", "values": [{"sequence": "MTAKPTIAFSHLGCEKNRIDTEHMIGLLAEAGYGIDANEALADVVVVNTCSFIQAAREESVRTLVELAESGKKIVIAGCLAQHFQDQLLAELPEAIALVGTGDYHRIVDVLQRTESGERVNAISQEPSFIADENLPRYRTTTSAVAYLRVAEGCDYRCAFCIIPHLRGKQRSRSIESIVAEAKQLAAEGVQELVLISQITTNYGLDRYGKPMLAELLRQLGQVDVPWIRIHYAYPTGLTPEVIAAIRETHNVLPYLDLPLQHSHPEILKAMNRPWQGNVNDRIIEKLKEALPDAVLRTTFIAGFPGETEEHFRHLQQFIQRHEFDHVGVFAFSPEEGTAAIDLPNPVPDDVKEARRDALMATQQPIAERRNRAQIGRLVDVLIEQEHPSTGLKIGRSARFAPEVDGVVYVQGDAALGQLVTVRITDADIYDLHGEVASAADLFQASRQPSLA", "protein production": "failed"}, {"sequence": "MTAPAPQTKNAAWGWVLLAGLFEVGFTYALKMSQHDGKYLGLFLLCAIVSFECLAQALKTLPVGLAYAVWTGIGSVGTILVGLVLFGDSLSALRLGLLTVLIGSIAGLKIVDR", "protein production": "failed"}, {"sequence": "MTAPEPSRDAKRLVRIDGVTKRFGDAPPALDAVSGAIGGGAITGLVGPDGAGKTTLIRLMTGLMLPDTGTMNVLGFDTRKNAAGIQAAIGYMPQRFGLYEDLSVQENLDLYADLRGLPKSERAGAFDELLTFTDLKRFTTRLAGKLSGGMKQKLGLACALLKKPRLLLLDEPGVGVDPISRRDLWKMVENLTKEGIGVVWSTAYLDEAEACDHVLLLNQGKLLFSGKPDEMTERVSDRVFRVSDVTGRRRQVLAELLQADGVIDGVIQGEAIRLVAANGKTPDIGKAGDGALLSPAPPRFEDAFVDMLGGGPGGRSRLAEAQEPLKAEGDRPVIEAKGLTKRFGDFTAADDISFDIRRGEIFGLLGPNGAGKSTTFKMLCGLLKPTGGEGRVAGFDLRRDAAEARNQLGYMAQKFSLYGDLTVMQNLEFFAGVYGLRGQRRHERIELMTEIFDFGRHAREPAKDLPLGLKQRLALACAVMHEPRALFLDEPTSGVDPITRREFWTHINGLVEKGVTVLVTTHFMDEAEYCDRISLIYRGRSIALGSPDELKARVATKNGPDPTMEDAFIALVQQSEAEDAA", "protein production": "failed"}, {"sequence": "MTAPGSVPLTVIGGFWGAGKTTLLNYLLKVQHSERVLVMVNDFGSINIDAELLDQGRHDRPGVVRLQNGCVCCSIGGDLMQAFLQVMSMPDRPDRIIVEASGVADPTRIAQIGRVSGGLSDEGVITLVDASAVRALAADKYVGDIVRQQILSADIVLLNKLDLSSDAEIVETRAWLRDLAPRTRVVSCIHGEVDAVSVLGIGAGKVAPDTAGGPVDVPVPDLRRASTRHADTFHSSTLATEHRFDRRRIEYALDALPQTVLRGKGFVELEGEATPALLQLCGSRWTLDPVSTPAPPAGTHLVFIATGGRGVPRFDAPSHFEQALASRDAASADTSNLEHHHHHH", "protein production": "failed"}, {"sequence": "MTAQKMSAQEIIAFIGNAEKKTNVKVTFEGALAAALPENVVKLGNVLFGDWKDIEPLLANLTENKDYVVEQDGRNSAVPLLDK", "protein production": "not failed"}, {"sequence": "MTARYIAIDWGSTNLRAWLYQGEECLESRQSEAGVTRLNGRSPAAVLAEITQHWRDGATPVVMAGMVGSNVGWKIAPYLPLPAAFSDIGQQLTAVGDNIWIIPGLCVSRDDNHNVMRGEETQLLGARALAPSSVYVMPGTHCKWVLADRRQIHDFRTVLTGELHHLLLQLSLVGAGLPPQETSAAAFAAGLQRGINNPAVLPQLFEVRASHVLGALPREQVSEFLSGLLIGAEVATLSDTFAGQQAISLVAGSSLTSRYQQAFAAIGREVSAVAGDTAFQTGIRSIAYAVAN", "protein production": "not failed"}, {"sequence": "MTASTALTVAIWIGVMLIGGIGSVLRFLVDRSVARRLARTFPYGTLTVNITGAALLGFLAGLALPKDAALLAGTGFVGAYTTFSTWMLETQRLGEDRQMVSALANIVVSVVLGLAAALLGQWIAQI", "protein production": "failed"}, {"sequence": "MTATAQQLEYLKNSIKSIQDYPKPGILFRDVTSLLEDPKAYALSIDLLVERYKNAGITKVVGTEARGFLFGAPVALGLGVGFVPVRKPGKLPRETISETYDLEYGTDQLEIHVDAIKPGDKVLVVDDLLATGGTIEATVKLIRRLGGEVADAAFIINLFDLGGEQRLEKQGITSYSLVPFPGH", "protein production": "not failed"}, {"sequence": "MTAVFRNTVLVRFKHCDAAGIVFYPRYFEMLNDFIEDWFAQALDWPFDAMHGAGQAGVPTADLHCRFVAPSRLGETLTRELRVVKLGQSSFTVQVRFMGPDSGLRLEVTQRLVCVDTDKIAPRPLPDPVRQAMATYVDETLAATGSPGL", "protein production": "not failed"}, {"sequence": "MTAVGADAPKPGAPIKEPRFGFLRRTYAMLVKELIQLKRDRLTFAMIIVIPVMQLLLFGYAINTTPRHLPTAVLLQEDSDLGRSILKALENTAYFKFTREVHSVAEFDDLLLSGRVLFGVEIPRGFERAVRRGEKPAILVAADATDPVAAGSALSALGQIVQTALMHDRVGGDPANPPFEIRAHARYNPAASSRLNIVPGLVGTILTMTMLIFTALSVTREIERGTMENLLSMPITPVEVMLGKILPYVGVGFIQASLILGIGVLLFGVPLRGSLAMLALLSTLFITTNLAIGYTFSTLVQNQLQAMQASMMFFLPSILLSGFMFPFAGMPIWAQYIGECLPLTHYLRIVRAIMLKGSTLENLQYDAVALLTLMLIAMTIAVTRFRRTLD", "protein production": "failed"}, {"sequence": "MTAVQLMELDSCTRCGECVKWCPTYAASGQKPGLAPRDKILRWRQYMNKSYGLKAKLFGPTEIPQSELEEFKDDVHGCTTCGICATVCESGINTVELWESLRTNLVKKGIGPFGKQGMFPKLEHHHHHH", "protein production": "failed"}, {"sequence": "MTAVRRIRAAALPDLPDASWSNALLVGEELVMSGMTAHPATRQAAERGAALDAHAQALVVLGKVKALLEAAGGHVGNLYKLNVYVTRIADKDAIGRARQEFFAGQGTFPASTLVEVSGLVFPELLVEIDAWARLDIDLANCDEA", "protein production": "not failed"}, {"sequence": "MTAWSLLHVGVFASVVMVVGWLWQRRSGNAGPVDVLWAGCLALAAPYCAWMADGALLPRALVAVLGGVWGARLALHLGVRVFGDPHEDGRYRALREHWNGSQGKFLGFFLAQAVVVVLFAVPFLAAASNPHAEWSAWTGIAIVVWLIAVGGEALADRQLSAHKANPANRGKTCRTGLWRYSRHPNYFFEFVHWFAYLALAVGAGPWPVALCALGPVVMFVFLYRFTGIPYTEQQALRSRGEDYAQYQRSTSAFFPLPPSS", "protein production": "failed"}, {"sequence": "MTAYWIAHVTIHDMQQYQEYMKLAPAAFQKYGAKFLARGGESVCVEGQAYQRHVIIEFPDLATAQQCYDSEEYKQARLAREGCADVMISFVEGLPTN", "protein production": "failed"}, {"sequence": "MTCPEQAIEHDDMNVVVDVEKCKFCMDCIPVCPTGSIDNWRVVDTPYSLEDQYGWMDLPPQEDVAGDEAGLEALDDAMAALLAEAHKGAGGKSRAPATASKPTINLYTLGKPAEARVTGNYRLTAESSDSDVRHIILDFGGQPFPVLEGQSIGIIPPGTDEAGNPHLPRLYSVSSPRDGERPNFNNLSLTVKREPHGICSNHVCDLKPGDTVRVTGPFGATFLMPSDPAAHLLMICTGTGSAPFRAFTMRRQRESPKLRNSLTLVFGARRPQELPYFGPLAKVPEQFMAKHFAFSRQDGAPKHYVQDRLRAEADRVGELLADPLTHVYVCGLKAMEQGVEEAFKDIARAQGIDWTGLRDRMRDEGRYHVETY", "protein production": "failed"}, {"sequence": "MTDATVGDEAAAPTVVRLDASCTTQEVEAGEYYHATVNGVVEYGAFVDLSEHVSGLIHESTYSGDPDLAVDDDVIVHLSAVRDNGDLSFEFVDPEEYRTEQRSHAYERTTADAVGSRIGDTVHIEGEVVQIKQTAGPTVFRVRDETSAIPCTAFEDAGVRAHPGVEVGDIVHVSGDADDREGTTQLEVDAFEVLSGGDSADVARRLDAALAEQADPVDVDALVDWPALEQLLPDLRSVARTLRRAVLEGRPIRMRHHADGDGMCASLPVQYALRQFIEDTHQDEDAARHLLKRLPSKAPYYEMEDATRDLNFALEDRARHGQKLPLLLMLDNGSTEEDTPAYKTLDNYDIPIVVVDHHHPDPGAVDPLVDEHVNPYLHGEDYRITTGMLCVELARMIYPGITSDLEHVPAVAGLSDRSKADAMTDYLDLARDAGYDESFLQQMSEALDYEAYMLRYDHGTQVIADILNVDGDAQRHRELVPFLDRLASEAVAEQLDATRSHVEHERVASGANLYRIDVENHAHRFTYPRAGENNRRDPRPQGRGNRGAGDHHRLRPGLRGAPVGRRAPGHPHDGRRTQRRTPWGRRLRRRPPGRRLDPVRSRDA", "protein production": "failed"}, {"sequence": "MTDDPTLWAQRLEEAVVGLGANGDRSHDLAHAKRVLRTALALADGVEDQGEGPVDRLVLTAAAYLHDIVAIEKNDPRRSLASRLSAAKAREILGGLDFPAGRQDGVAHAIEAHSFSAGIAPRSLEARILQDADRMESLGAIGVARTFYVAGRLGSALFHDDDPLAFARPLDERAYALDHFFTKLLTLPATMTTAPGRAMAGERAELLRAFAEALAQEVSGAAAPGPRPARPSDGEAPSPLPVWPGSGTRTR", "protein production": "failed"}, {"sequence": "MTDDVDDGWAASAAAWIIEQGEDGDYGRRFVLDAPMRARIEGRGFRNALDVGCGEGRFCRIMQRAGIRTTGIDPTEALLARARELDPRGDYRLGRAETMDIDACFDLVVSYLSLIDIPDLGTAIAKMVGALRPGGTLLIANLTSFNTAGQPDGWARDRKGEMRFAIDHYMDERPIWLSWRGIRLQNWHRPLGTYMTLLLDHGLQLRLFVEPEPTSGDPRRNDLHRRVPYFHMMEWQKPA", "protein production": "failed"}, {"sequence": "MTDESSVRTPKALPDGVSQATVGVRGGMLRSGFEETAEAMYLTSGYVYGSAAVAEKSFAGELDHYVYSRYGNPTVSVFEERLRLIEGAPAAFATASGMAAVFTSLGALLGAGDRLVAARSLFGSCFVVCSEILPRWGVQTVFVDGDDLSQWERALSVPTQAVFFETPSNPMQSLVDIAAVTELAHAAGAKVVLDNVFATPLLQQGFPLGVDVVVYSGTKHIDGQGRVLGGAILGDREYIDGPVQKLMRHTGPAMSAFNAWVLLKGLETLAIRVQHSNASAQRIAEFLNGHPSVRWVRYPYLPSHPQYDLAKRQMSGGGTVVTFALDCPEDVAKQRAFEVLDKMRLIDISNNLGDAKSLVTHPATTTHRAMGPEGRAAIGLGDGVVRISVGLEDTDDLIADIDRALS", "protein production": "not failed"}, {"sequence": "MTDIHPREILICTIAKLLDGVRHVAVGASSPIPASGAMLLRALKQQAGETGPRISILGSVEHNFFTNGSAELFDCAGQGRIDAFFLGGGQIDGQGNINLVGTGEYPQTQVRWPGSFGSAYLYYVVPRVILFREEHTPRAMVEKVDFISAPGLSDEGVYRPGGPIALLTSKALFRFDKNRRGFELESVHPGYDLAAIKEATGFKFAHDDVPAQTALPDPQVLKLLRERVYDEVAETYPDFAAQMRREIAQPLPRAS", "protein production": "failed"}, {"sequence": "MTDIRKAATLVVIRDGANKDIEVLVVRRAKTMRFLPGFVAFPGGAADPSDAEMAKRAFGRPVCAEDDDDPALAVTALRETAEEIGWLLAVRDGEGTKMDTPLAPDEQADLCKGGDALSAWLSARGLAFDLGLLRRIGRFVTPPTQPVRFDTRFFLCVGQHLGEPRLHGAELDAALWTPARDMLTRIQSGELPAVRPTIAVLKALVACPNAEIAMSTLSIGPLPPPAPRA", "protein production": "not failed"}, {"sequence": "MTDQRFKIVFSGELMPDASLETVKDNLARLFKSEPGKIDALFGGRPVVLKRELPEAEAERYLTALRQAGANAYKEVDLAASLSLVETPDHNPQVAEETPAQDLPPMTCPKCGHEQPSGAECSACGVIIEKYLARQAQLGENAAPAATAAAGASPYTPPSAQVGDTLPEFGELNVFTTNGRIGRLRYLGWSMAMTLCFLVIMGLGFLLGETVGVAVTALASIAFIVIAVMIGVQRLHDLGWSGWLWLLNFVPFVGSVFGILMLVLPGSTGANRYGPPPPANSTGVKVLASLIILLPIVGIIAAIALPSYQGYLERANYDGGASAPADPYTTDEQAAAAAAEADEAATAAAEAMEDDDQQ", "protein production": "failed"}, {"sequence": "MTDQTKPSWTADRGADLLGALFFLTRLPTPTTHTPPPFTRAVWAFPLAGALVGLIGALAVGGAQALGLSPTLAALLGVSVMALVTGAMHEDAVADIADGFGGGRTRERVLEIMRDSRVGAFGVTALVLVLALRVAALAALAGGPWAMAALVCAAGLGRGAAVLMLGLLPPARTDGLGASFGRPQQASLAFALILCLVLAVVLLPGAAPAVALVGMVAPTLYLAWRAKVRIGGQTGDVAGAAALIGETLALVGLSAMLGAAP", "protein production": "failed"}]}]}
